According to US20130302346A1 (LEXICON PHARMACEUTICALS, published 2013):

T1: Human NOTUM R144A/R145A (human, UniProt Q6P988 20-496)
T1 construct: Alanine mutant, expressed and secreted after transient transfection
T1 sequence: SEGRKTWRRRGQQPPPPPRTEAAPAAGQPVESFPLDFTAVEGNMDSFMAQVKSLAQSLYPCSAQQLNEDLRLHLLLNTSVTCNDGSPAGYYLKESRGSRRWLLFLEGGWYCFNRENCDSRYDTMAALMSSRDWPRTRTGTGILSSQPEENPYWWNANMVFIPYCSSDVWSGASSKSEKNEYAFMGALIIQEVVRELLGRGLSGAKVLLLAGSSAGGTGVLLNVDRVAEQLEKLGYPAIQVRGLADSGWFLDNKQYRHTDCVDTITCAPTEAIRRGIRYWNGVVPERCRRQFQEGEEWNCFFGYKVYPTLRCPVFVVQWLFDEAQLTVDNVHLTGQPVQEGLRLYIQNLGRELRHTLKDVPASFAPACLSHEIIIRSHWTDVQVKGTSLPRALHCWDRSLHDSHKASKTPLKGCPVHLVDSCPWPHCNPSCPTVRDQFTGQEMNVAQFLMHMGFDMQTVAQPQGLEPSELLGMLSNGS

T2: H-M
T2 construct: Drawn on the sheet as human N-terminal part and mouse C-terminal part; Produced by transient transfection of HEK293F and used as conditioned medium; also called Human-mouse chimeric NOTUM
T2 single chain: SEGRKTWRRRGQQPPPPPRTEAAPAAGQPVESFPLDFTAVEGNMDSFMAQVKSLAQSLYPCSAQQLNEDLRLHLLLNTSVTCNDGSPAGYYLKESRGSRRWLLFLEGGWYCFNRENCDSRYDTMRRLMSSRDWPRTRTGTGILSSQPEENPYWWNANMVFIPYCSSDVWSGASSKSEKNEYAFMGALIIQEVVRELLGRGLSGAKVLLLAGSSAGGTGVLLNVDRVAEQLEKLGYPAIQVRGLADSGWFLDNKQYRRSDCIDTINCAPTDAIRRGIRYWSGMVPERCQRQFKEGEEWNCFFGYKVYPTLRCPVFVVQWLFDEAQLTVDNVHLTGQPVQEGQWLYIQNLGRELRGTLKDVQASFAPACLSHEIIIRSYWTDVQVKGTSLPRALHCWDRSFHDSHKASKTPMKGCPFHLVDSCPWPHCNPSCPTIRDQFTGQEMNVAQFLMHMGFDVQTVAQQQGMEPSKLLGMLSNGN

T3: H(Q47)
T3 construct: Drawn on the sheet as a signal peptide (SP) followed by human NOTUM starting at Q47; CD33 signal peptide'; also called Human NOTUM (delta 1-46) with CD33 signal peptide
T3 single chain: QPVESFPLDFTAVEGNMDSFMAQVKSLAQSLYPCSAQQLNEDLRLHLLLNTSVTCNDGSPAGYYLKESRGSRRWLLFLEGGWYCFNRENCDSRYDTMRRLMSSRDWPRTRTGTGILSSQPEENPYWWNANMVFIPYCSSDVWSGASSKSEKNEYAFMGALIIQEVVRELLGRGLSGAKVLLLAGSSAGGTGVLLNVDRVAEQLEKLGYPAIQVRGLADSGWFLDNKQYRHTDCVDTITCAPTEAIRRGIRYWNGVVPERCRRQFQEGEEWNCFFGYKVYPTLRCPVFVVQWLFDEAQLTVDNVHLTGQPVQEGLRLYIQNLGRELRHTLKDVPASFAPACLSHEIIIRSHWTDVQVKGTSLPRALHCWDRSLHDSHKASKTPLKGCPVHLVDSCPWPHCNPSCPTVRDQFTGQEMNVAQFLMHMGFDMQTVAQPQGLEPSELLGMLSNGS

T4: H(S232A)
T4 construct: The catalytic triad serine is drawn as A on the sheet; also called Human NOTUM S232A
T4 single chain: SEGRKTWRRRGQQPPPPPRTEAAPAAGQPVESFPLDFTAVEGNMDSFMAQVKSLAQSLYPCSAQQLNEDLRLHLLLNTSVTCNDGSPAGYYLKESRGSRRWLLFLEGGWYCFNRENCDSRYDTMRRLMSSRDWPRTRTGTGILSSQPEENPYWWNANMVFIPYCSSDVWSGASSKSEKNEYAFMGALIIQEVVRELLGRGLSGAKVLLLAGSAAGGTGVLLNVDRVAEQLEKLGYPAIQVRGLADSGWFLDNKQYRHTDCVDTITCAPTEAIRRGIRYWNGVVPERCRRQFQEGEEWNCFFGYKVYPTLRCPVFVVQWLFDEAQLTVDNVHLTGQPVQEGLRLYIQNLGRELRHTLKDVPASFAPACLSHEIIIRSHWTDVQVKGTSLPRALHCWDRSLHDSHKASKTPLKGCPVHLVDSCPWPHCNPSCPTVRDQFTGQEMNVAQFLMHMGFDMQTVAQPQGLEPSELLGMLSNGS

T5: H(N96D)
T5 construct: Human NOTUM with N96D, marked inside the Q47-M177 box on the sheet; also called Human NOTUM N96D
T5 single chain: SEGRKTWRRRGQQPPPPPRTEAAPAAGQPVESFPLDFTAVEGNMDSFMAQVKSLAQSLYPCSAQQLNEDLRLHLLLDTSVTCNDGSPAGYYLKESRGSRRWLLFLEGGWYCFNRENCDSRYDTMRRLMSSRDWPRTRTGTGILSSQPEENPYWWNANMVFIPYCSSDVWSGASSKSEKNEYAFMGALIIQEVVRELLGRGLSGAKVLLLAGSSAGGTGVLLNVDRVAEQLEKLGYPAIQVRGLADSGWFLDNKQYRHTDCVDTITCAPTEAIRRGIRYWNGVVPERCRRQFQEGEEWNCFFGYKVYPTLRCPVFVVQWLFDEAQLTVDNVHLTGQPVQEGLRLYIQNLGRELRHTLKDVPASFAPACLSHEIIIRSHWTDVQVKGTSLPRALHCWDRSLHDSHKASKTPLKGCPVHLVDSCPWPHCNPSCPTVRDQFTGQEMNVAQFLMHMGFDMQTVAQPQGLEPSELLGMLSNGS


How the values were obtained:
Human NOTUM R144A/R145A = molecular target: T1, Human NOTUM R144A/R145A; experiment: ELISA
H-M = molecular target: T2, H-M; experiment: ELISA on conditioned medium of HEK293F transfected with the NOTUM construct (Example 6.7)
Excerpt: (§1) The sequences of those proteins are shown in Section 7 (Table of Sequences). The conditioned media were used in ELISA format to determine antibody specificity. […] Within this region, mouse and human NOTUM differ at five positions (R115K, D141S. R150K, R154H, and Y171H, based on the human sequence numbering). Human NOTUM point mutants were generated by transient transfection of constructs expressing human NOTUM with the mouse amino acid at each of these five positions and the point mutants were all shown to be functional in the OPTS assay.

H(Q47) = molecular target: T3, H(Q47); experiment: as above
Excerpt: as §1

H(S232A) = molecular target: T4, H(S232A); experiment: as above
Excerpt: as §1

H(N96D) = molecular target: T5, H(N96D); experiment: as above
Excerpt: as §1

binding result (Human NOTUM R144A/R145A) | binding result (H-M) | binding result (H(Q47)) | binding result (H(S232A)) | binding result (H(N96D)) | Binder
no binding | binds | binds | binds | binds | MAb 1.802 (antibody, V domains shown, Mouse monoclonal antibody from Campaign 1 (raised against human NOTUM), IgG1) VH: EVQLVESGGGLVKPGGSLKLSCAASGFTFSDYGMHWFRQAPEKGLEWVAYISSGSRTVYYADTVKGRFTISRDNAKNTLSLQMTSLRSEDTAMYYCARKHYNGGYFDVWGTGTTVTVSS VL: DIVLTQSPASLAVSLGQRATISCRASKIVSTSGYSYMHWYQQKPGQPPKLLIYLASNLESGVPARFSGSGSGTDFTLNIHPVEEEDAATYYCQHSRELPPTFGSGTKLEIKR
no binding | binds | binds | binds | binds | MAb 1.815 (antibody, IgG1, V domains shown, Mouse monoclonal antibody from Campaign 1, IgG1) VH: DVQLLESGGGLVQPGGSRKLSCAASGFTFSDFGMHWVRQAPEKGLEWVAYSSSGGTTVYYADTVKGRLTLSRDNSKNTLFLEMTSLRSEDTAMYYCARASYDGGYFDCWGQGTSLTVSS VL: DIVLTQSPASLAVSLGQRATISCRASKSVSTSGYSYIHWYQQKPGQPPKLLIYLASDLESGVPARFSGSGSGAAFTLNIHPVEEEDAATYYCHHSRELPFTFGSGTKLEIKR
no binding | binds | binds | binds | binds | MAb 1.846 (antibody, IgG2b, V domains shown, Mouse monoclonal antibody from Campaign 1, IgG2b) VH: EVQLVESGGDLVKPGGSLKLSCAASGFTFSDYGMHWLRQAPEKGLEWVAYISSGSTTLSYANTMKGRFTISRDNAKKTLSLQMTSLRSEDTAIYYCARKNYNGGYFDVWGTGTTVTVSS VL: DIVLTQSPASLVVSLGQRATISCRASKSVSESGYSYMHWYQQKPGQPPKLLIYLASNLESGVPARFSGSGSGTDFTLNIHPVEEGDATTYYCQHSRVLPPTFGSGTKLEIKR
